Reference: article PMC10074443

Columns and labels:
N[C@H](CF)[C@H](N)C(=O)O = experiment: continuous MesG/hydroxylamine coupled adenylation assay; type: biochemical, Paraburkholderia acidicola; settings: co-substrate ATP; hydroxylamine as acceptor
C[C@@H](N)[C@H](N)C(=O)O = experiment: as above; type: biochemical, Paraburkholderia acidicola; settings: co-substrate ATP; hydroxylamine as acceptor

Substance “A3 (adenylation domain of SulM) (Paraburkholderia acidicola)” has a Km (N[C@H](CF)[C@H](N)C(=O)O) of 20.7 mM and a Km (C[C@@H](N)[C@H](N)C(=O)O) of 1.08 mM.
